Experimental data: a protein production outcome set (Wang et al. 2014)

Assay: label from the status in PepcDB records

| Sequence | protein production |
| --- | --- |
| MRVVALVPGGIGDQILFFPTLDDLKRYYPNAQLDVVVEPRSKAAYRVSKSVNDILTFDYKDRNSLADWGNLVGTIRDREYDVVITVGQSWLVGLFLWLTGIPTRIGYQGKGRSFLTKTVPFKPSQYAAAVYHDLLAPIGITTPTPELEHHHHHH | failed |
| MLDSFEILKALKSLDLLKNAPSWWWPNALKFEALLGAVLTQNTKFEAVLKSLENLKNAFILENDDEINLKKIAYIEFSKLAECVRPSGFYNQKAKRLIDLSKNILKDFQSFENFKQEVTREWLLNQKGVGKESADAILCYVCAKEVMVVDKYSYLFLKKIGIEIEDYDELQHFFEKGVQENLNSALALYENTIPLAQLYARFHGKIVEFSKQKLELKL | failed |
| MLLLSIYISIAIGISFICSVLEAVLLSISPSYIAQLNQQGHPAAEQLSKLKSDIDRPLASILTLNTIAHTIGAATAGAQAAVVFGSEALGIFSAVLTLAILVLSEIVPKTIGATYWRQLAPAAAVSLRWMVWALTPFVWFSEQITKRLARNHEAPKMRDELSAMAILARESGEFAEGESKILSNLLGIQDVPVTQVMTPRPVVFRVDATMTINEFLDKHKDTPFSRPLVYSEQKDNIIGFVHRLELFKMQQSGSGQKQLGAVMRPIQVVLNNTALPKVFDQMMTHRLQLALVVDEYGTVLGLVTLEDIFEHLVGEEIIDEADKSTDMQELAYQRWESWKEMHGVIESRDDDDEELEKQNVEPETQEPTKPDSKES | failed |
| MSLSQRTLLLLSQDNAHYERLLKAAHLPHLRILRADNQSDAEKLIGEAHILMAEPARAKPLLAKANKLSWFQSTYAGVDVLLDARCRRDYQLTNVRGIFGPLMSEYVFGHLLSLMRQLPLYREQQKQRLWQSHPYQGLKGRTLLILGTGSIGQHIAHTGKHFGMKVLGVSRSGRERAGFDQVYQLPALNKMLAQADVIVSVLPATRETHHLFTASRFEHCKPGAILFNVGRGNAINEGDLLTALRTGKLGMAVLDVFEQEPLPADSPLWGQPNLIITPHNSAYSFPDDVAQIFVRNYIRFIDGQPLDGKIDFDKGYEGHHHHHH | not failed |
| MMRFLFVDRIVQLSPGEWIKGIKHVTRDDAYLTTDDHGRLCFMPSLIGETLGQLAAWNVMQHNHFTARPVAGVVSSARLYRPAYVGETILLESNIDSLDEKAVQYHSIAKVGNDIIFTIDGALGPMLPMTEFISTEVIRQQFAEIYRPGDWSSVLALSSPVLIEENCSDCGMINSSMQFDRILASQPGISLIAEKRITRSASYFPDHFPKRPVLPMTVLLECKLNLAKEFIARAKYDRAYRISELRKIKMNEFVHPGDVVVCQVKVKQQMDDELILSYRCEVDGKRVCVVDIVLIPKGK | failed |
| MMHHALHIKNGIVIDPKNGVKAEKMDIFVKNGKIVEESEVKGEDVKVIDANNKLVVAGGVDMHAHIAGSKINTGRTMRPEEMRVVRNIAGKFRAAVGRVLLTSPLEHHHHHH | failed |
| MKHIQINPSILSADLARLGDDVKAVLAAGADNIHFDVMDNHYVPNLTFGPMVLKALRDYGITAGMDVHLMVKPVDALIESFAKAGATSIVFHPEASEHIDRSLQLIKSFGIQAGLALNPATGIDCLKYVESNIDRVLIMSVNPGFGGQKFIPAMLDKAKEISKWISSTDRDILLEIDGGVNPYNIAEIAVCGVNAFVAGSAIFNSDSYKQTIDKMRDELNKV | not failed |
| MNNENPLVSILIPVYNREKYIGEAIESAINQTYKNIEVIIVDNCSTDNTWKILQDYQCKDKRIHIFQNEKNLGPVYNWIECFKRAKGVYSKILWSDDWMSLDFVENALSAFNEDISFVISAQQIITNDKEILSNVAYLKDRYSQREYLENALLYNKYNFPLSPGCAIFRTKDVLNNFIVDIPNSDSLDSKKNGAGNDLYLFLKIALHYPYIGVVANSVSYFRAHKESFSVASDLNLYYEWAKVDFINSELRDSYFISAKKMLLFKFSVKNKHFRNICKSLSYNKYILQAVFRLLLIRILEHHHHHH | failed |
| MYIVIAGGGEMGGELARALEKTHDVVVIDRNPQARERFASWDVKVVVGGATDPDTLREAGVDRADLFVASTDSDEINLLASLLAKGLGAKEAFCFVGKGGYVEVLTDPRTAEILGTRIDRVLWPQRAMAREIVEVILVPWAVDTEVLAGGRLRFVEYRVKEGGEYVHRLLSGEKWPEGVLLAGVVREGTFLSFAHPEFPELILEPGDKLLFVATQKAFSELAAYFTEGPGVRRVMVIGGGNVGFMVAQGLLKRRVEVVIVERNAERCQWLSEELPGALVIQGDGTDIELLEAEGMAEADAVVAVTDHDEKNLLASLLAKQMGVRKVITRVSRSETRRLFEQVGIDLALTPRQAAVREVLDWIGPENVEHIATLEESIEVLEVLVSEGAAPKALRDLVRPDAVPVALERDHRIFLYEEGLGLLPGDRLYLVAAREVADEVLAPFFPE | failed |
| MAMPAHMTLTGEKQGKIDGSCELQGRENTIQLYEMKHDIHMPRNPHDGLPTGKRVHGPLSIVKMFDKSSPKLYQALCTGEHMKNVQIKWYRINKQGLEEHYFTTTLEDAIVVEMKPYMPMTLLPANEPYGHMEEVAFSYKKIKWTWEPNGIEAEDSWSVPK | failed |
| MQVNIILLAAGKGQRFQSSSPNKIGCATIKQLARINDKPLIVHSIDKLQPLLKNAYVHNFFVTLGANKNAIQTVLPQDISVIASQHWAEGMGHTLAESVHSIKATSSHVLVALADQALITTEHYQELLSASKEQPNKIIATLCEGQLMAPAIFPEKYFPLLVKIQGDKGAGKLLLQHAKKADAITCEDAKIDIDTFSDLERVRQHLEYALQDNQQSSL | failed |
| MSFKNFKCVPKMIFGRGSFVQLDTVLEQERTDANDFVVFLVDDVHQHKPLAARVPNKAHDLVIYVNVDDEPTTVQVDELTAQVKAFNTKLPVSVVGLGGGSTMDLAKAVSLMLTNPGSSSEYQGWDLIKNPAVHHIGIPTVSGTGAEASRTAVLCGPVRKLGLNSDYTVFDQIIMDSELIAGVPTDQWFYTGMDCFIHCVESLQGTYLNEFAKAFAEKSMDLCREVYLDDHPEKDDKLMMASYMGGMSIAYSQVGACHAVSYGLGYVLGYHHGIGNCLAFDVLEEFYPEGVAEFRKMMEIHNITLPKNICKDLPDETIAKMVAVTKSMGPLWDNVYGKGWEEKVTDEMLTKLFRRI | not failed |
| MSTSMPTALAGGRYQLGQLIGRGGMAEVHVALDTRLGRTVAVKIMRADLANDDIFLARFRREAHAVAQMNNPNIVNIYDSGEELVSSESGDTERLPYIVMEYVKGQTLRDIIKVNGALSQRDCEQVLLGVLNALDYSHRMGIIHRDIKPGNIMISEQGVVKVMDFGIARALDDSAATMTQSQGVVGTAQYLSPEQARGETVDMRSDLYSAGCVLYEMLTGRPPFTGDSAVAIAYQHVSEVATPPSAVVPGLPKMWDSICAKAMAKDRQNRYATASEFKTDILTYMNGGVPVAAAFNPLTDLSNMKARKEAERDLPTTPVEPQQQPTQAFNPVTGQFEQIPPANGANSAALQSRAQQRAAAAKAKKRKKIIIGSVIAVLAVALVGAGVVFAMSGAPNKSAEDKVTIPEVCNASTSKDNIKLKLETLGLTMVGKQDTDSTEPEGTCTKMSPEAGAKVAKGSKVKVWFSAGPQSTQVPDVKERSQEEARSILESAGFKVNATVRTEDSADIAKDMVTKTDPAAGQSVPKGTTITIYVSSGMTTVPSNLVGQSKDSVLQQYEGRFSFTVEQESSDTVEAGLITRVSPDSGSSIAQGGSITIWVSTGKEKVAVPNIAAGTKYATAELMLKAVGLKAQANGPADPTAVVVGIDPGAGAQVDVGSTVTITTKAAVTGDNNGNGNGNAGGSSSTGGTGPGGDK | failed |
| MMTLNAFIEKLSTQPELIEFTETMAVIESHYEFTPTEFANGNTVNLADQNNGSCKIFAFALLNQLSVDQTLACFGQYYRQDVLENPQGDDHQNIRNFMVTGWAGVQFKAQALQAK | failed |
| MNIAPLKVSLLSLALLLSPVASLPAHAACTANLALQPASSLPALGGRLVYHSYMEYGDGSSNLYLHDFKSKSTRQLNQPGWNIEDPMNAHFSPDGRYLTFMGRQNGAWHVFAWAIGGTQAPSNLTAAIGGRNEDPKFSFDGRQVVLKHEGDIRLATLVFNGDGSVGVSAWKAVTGDGWSTEESMPFLTPSGKYVVYATGAGDSLRVVRRNLENGQVCALATPAAGGRDYYPVVRDYTAYFLSRTQPAGNDQLAMVVPNSPPGTPAILPLNHCQGDNSDAAPVNEDYLIFSSTSFDPTYSLLLGDIAAARVWRLDPAQINLPDGRQKLGASYTAAR | failed |
| MVSKECCRNEIRAAIRQLSDRCLYSAAKWAGEQLVGIEQDPSNFTPANTRFQRGSSSIRRRFSTNESISTPLPSVGFSQAATPLPEEDEAIDGDIYLLAKSYFDCREYRRASHMLRDQVSKKSLFLRYYALYLAGEKRKEEEMIELEGPLGKSDAINRELVSLERDLSALRRTGAIDSFGLYLYGVVLKEKGNESLARASLVESVNSYPWNWSAWSELQSLCTSIEILNSLNLNNHWMKEFFLGNAYQELRMHTESLAKYEYLQGIFSFSNYIQAQTAKAQYSLREFDQVEIMFEELLRNDPYRVEDMDLYSNVLYAKEACAALSYLAHKVFLTDKYRPESCCIIGNYYSLKGQHEKAVMYFRRALKLNKKYLSAWTLMGHEYVEMKNTPAAIDAYRRAVDINPTDYRAWYGLGQAYEMMGMPFYALHYFRKSIFFLPNDSRLWIAMAKCYQTEQLYMLEEAIKCYKRAVNCTDTEGIALNQLAKLHQKLGRNEEAAYYFEKDLERMDAEGLEGPNMFEALVFLATHFKNHKKFEEAEVYCTRLLDYSGPEKEKAKSLLRGIRMAQTGFPSMDLEHFPI | failed |
| LTVHYDLQLYKINYKTQSPDGNLTIASGLVAMPIHPVGQVGIISYQHGTRFERNDVPSRNNEKNYIYLAAYGNSAGYMTVMPDYLGLGDNELTLHPYVQAETLASSSIDMLFAAKELANRLHYPISDKLYLAGYSEGGFSTIVMFEMLAKEYPDLPVSAVAPGSAPYGWEETMHFVMLEPGPRATAYLAYFFYSLQTYKSYWSGFDEIFAPPYNTLIPELMDGYHAVDEILQALPQDPLLIFQPKFSNGIISKTDRNTEILKINFNHYDFKPTAPLLLVGTKGDRDVPYAGAEMAYHSFRKYSDFVWIKSVSDALDHVQAHPFVLKEQVDFFKQFERQE | not failed |
| LSHGDFELAVPGGPVAAYYAAPAGREQLPIVLVVQEIFGLHEHIKDVCRRLAHDGYLAVSVNLYQRQGDASRYDNIPGLVAELVSKVPDEQVHADLDASLAWAAAHGGDGARVGVTGFCWGGRTTWMYAARNPAVKAGVAWYGRLSSGHGPLIKQVPLDVAGSLHAPVLGLYGGKDESIPLDDVRAMEARLQQGGAPAQASRIVVYPQAGHAFLADYRPSYRAADAQDGWRRMLDWFALYL | failed |
| MAFKVVISDKEKSVQMEVDPSESRGLIGLTIGDEFDGSIIGLSGYKLKITGGSDKNGFPMKKTVPGARRIRSLVSGGVGYKPRRDGERRRKTFRGNTISDDIVQINTVVIEKGEKPLEELLGADEELEHHHHHH | failed |
| MRRSFYHYLMTLKGPAKDSETDFANEAAKDIQFPKQTEDYHELSSYLEMNADYLSNMDIFDELWEKYLENNKLEHHHHHH | not failed |
| MRTLIILLLCTNTSFAIAQISPKAVEKNNQSVKTAGFFNDSDSLNKAIHLSDEAIALEPSYKLAYANKIKYLMALGQKEKALQTMLQMEKFSPDDPYYILGKGMMLEENAKKSLAMDAYKQAASLFKKRLKEKPTEADLMNYVFVLFLRDNKNYSLDEIEKEYPQIFSPAIRQHTKKLIDELSNKREDVIHEMLGGK | failed |
| MKTSRECFSSAGGSPMIRATSARSPPVPQSALPIGSLLSAPRPAFTETEAQGLARTHFGLDGTALPLTSERDQNFRLATPRGAFVLKIANAAEPRGVTECQTLALLHLEAVAPGLPVPRVIRTREGAPWTELAGGNLLRLLTWVEGEPLWRARRGAAQRRAVGLCLGGIAAALADFSHPSADHELLWDIRHAARLRALLPAIPDARTAVLAERVLDRFETAVAPRLADLPWQVVHNDMNPHNIMVDPANADRVAGVIDFGDLVRTARVCDLAVAGSYQVDPGDPAGTLADLVAGYHAANPLRPEEVELLPDLVAARMVTTIAIASARAAQQPDNAPYILRNLPASAAGLEALTALAPGAAAAALLRATEAA | failed |
